Entries after “also recorded” stand apart in the source; their conditions may differ.
B1: GGPPS: recombinant geranylgeranyl diphosphate synthase from grand fir, truncated, His6-tagged, SEQ ID NO:26 (protein)
chain: MFDFKEYLRSKAMAVNEALDRAVPLRYPERIHEAMRYSLLAGGKRVRPVLCISACELVGGTEEVAMPTACAMEMIHTMSLIHDDLPCMDNDDFRRGKPTNHKVFGEGTAILAGDALLSFAFEHIAVSTSKSVGTDRILRVVSELGRTIGSQGLVGGQVADITSEGDASVDLDTLEWIHIHKTAVLLECSVMCGAIISGASDNEIERIQRYARSVGLLFQVVDDILDVTKSSKELGKTAGKDLISDKATYPKLMGLEKAKQFASDLLIRAKEDLSCFDPMKAAPLLGLADYIAFRQNLEHHHHHH
modifications: His6 tag; Abies Grandis
B2: AgGPPS1: recombinant geranyl diphosphate synthase from Grand fir (Abies grandis), truncated, His6-tagged, SEQ ID NO:16 (protein)
chain: MFDFKEYLHSKAISVNEALERAVPLRYPEKIHEAMRYSLLAGGKRIRPILTIAACELVGGSEELAMPTACAMEMIHTMSLIHDDLPSMDNDDLRRGKLTNHKVFGEGTAVLAGDALLSFAFEHIAVSTRKTVASHRVLRVVSELGKAIGSQGVAGGQVADITSEGDPSVGLETLEWIHIHKTAVLLECAVVSGAIIGGASENEIERTGRYARCVGLLFQVVDDILDVTRSSEELGKTAGKDLVSDKATYPKLMGLEKAKEFADELLDRAKEELSCFNPAKAAPLLGLADYIALRQNLEHHHHHH
modifications: His6 tag; Abies Grandis
B3: AgGPPS2: recombinant geranyl diphosphate synthase from Grand fir (Abies grandis), truncated, His6-tagged, SEQ ID NO:12 (protein)
chain: MFDFNKYMDSKAMTVNEALNKAIPLRYPQKIYESMRYSLLAGGKRVRPVLCIAACELVGGTEELAIPTACAIEMIHTMSLMHDDLPCIDNDDLRRGKPTNHKIFGEDTAVTAGNALHSYAFEHIAVSTSKTVGADRILRMVSELGRATGSEGVMGGQMVDIASEGDPSIDLQTLEWIHIHKTAMLLECSVVCGAIIGGASEIVIERARRYARCVGLLFQVVDDILDVTKSSDELGKTAGKDLISDKATYPKLMGLEKAKEFSDELLNRAKGELSCFDPVKAAPLLGLADYVAFRQNLEHHHHHH
modifications: His6 tag; Abies Grandis
B4: AgGPPS3: recombinant geranyl diphosphate synthase from Grand fir (Abies grandis), truncated, His6-tagged, SEQ ID NO:20 (protein)
chain: MFDFNKYMLSKAMAVTEALDKAIPHSYPQKIHESMRYSLLAGGKRVRPVLCIAACELVGGREELAMPTACAMEMIHTMSLIHDDLPCMDNDDLRRGKPTNHKVFGQDTALLAGDALHAFAFEHIVAFTSKSVGSDGILRAVTELARATGPQGIMGGQIVDIASERDAFVDLQTLEWIHIHKTAVLFECATVCGAIIGGASGDEIERIRRFARYLGLLFQVVDDILDVTKSSEDLGKTAGKDLVSDKATYPKLMGLEKAKGFSLELLNKAKEELSCFDPMKAAPLFGLADYMALRQNLEHHHHHH
modifications: His6 tag; Abies Grandis

How the values were obtained:
[1] = tested on: presumptive prenyltransferases (GPP synthases and GGPP synthase) from grand fir; assay: Product determination and co-substrate selectivity assay ([4-14C]IPP plus allylic co-substrate, MgCl2; radio-GC of hydrolysed products); type: biochemical, Abies grandis; settings: for product formed: radio-GC; for rate with GPP as allylic co-substrate in the production of FPP, relative to the rate with DMAPP: standard assay conditions
Description: Protein purification and product determination. The affinity-based purification procedure for His-tagged proteins has been described previously, as has the standard purification protocol for the corresponding non-tagged proteins (C. Burke and R. Croteau, J. Biol. Chem.277:3141-3149, 2002). The partial purification procedure for the native GPP synthase from A. grandis has also been reported previously (D. Tholl et al., Arch. Biochem. Biophys. 386:233-242, 2001). Procedures for polyclonal antibody preparation were as described previously (C. C. Burke et al., Proc. Natl. Acad. Sci. USA 96:13062-13067, 1999), in this case using the SDS-PAGE purified AgGPPS3 protein (SEQ ID NO:7) as antigen. The assay procedures and methods for product analysis were similar to those previously described (C. Burke and R. Croteau, J. Biol. Chem. 277:3141-3149, 2002), except that for radio-GC a Raga (Raytest) radio-detector connected in-line to a Series 600 (Gow-Mac) chromatograph was employed with a 5% phenyl polysiloxane (ZB-5; Phenomenex) capillary column under hydrogen gas flow (70° C. for 5 min. followed by an 8° C. per min. ramp to 240° C. for 5 min).
As might be expected based on prior experience, the full-length (preprotein) versions of these enzymes (SEQ ID NOS:3, 5, 7 and 22) were not efficiently expressed in soluble form and the bulk of the protein generated was in inclusion bodies. However, the truncated versions of these enzymes with the appended C-terminal His6-tag (SEQ ID NOS:12, 16, 20 and 26) readily afforded soluble protein that was affinity purified to >90% in amounts up to 6 mg/L. To define the function of these presumptive prenyltransferases, assays were conducted with the purified proteins (SEQ ID NOS:12, 16, 20 and 26) using [4-^14C]IPP and DMAPP as co-substrates and MgCl2 as cofactor. The resulting products were enzymatically hydrolyzed to the corresponding alcohols and analyzed by radio-GC. […] His-tagged AgGPPS1 (SEQ ID NO:16) and AgGPPS3 (SEQ ID NO:20) were able to accept GPP as the allylic co-substrate (110% the rate with DMAPP under standard assay conditions) in the production of FPP, and His-tagged AgGPPS3 (SEQ ID NO:20) could also efficiently utilize FPP as allylic co-substrate in the formation of GGPP (at about 50% the rate with DMAPP as co-substrate).

[2] = tested on: recombinant GPP synthases from grand fir; assay: Kinetic evaluation, standard prenyltransferase assay with purified recombinant His6-tagged GPP synthases; type: biochemical, Abies grandis
Experimental: Molecular weight determination and kinetic evaluation. The molecular weight of GPP synthase was determined by gel filtration chromatography on a calibrated XK 16/70 column of Superdex 200 (Amersham Biosciences) as previously described (C. Burke and R. Croteau, J. Biol. Chem. 277:3141-3149, 2002). For kinetic evaluation, the standard prenyltransferase assay was performed (C. Burke and R. Croteau, J. Biol. Chem. 277:3141-3149, 2002) but the reaction was terminated after 4 min. to ensure linearity in the rate measurements. For preparative incubations, the reaction time was extended to 8 min., and all assays contained from 0.25 to 1.0 μg of purified protein.
Kinetic characterization of the GPP synthases (SEQ ID NOS:12, 16, and 20). To compare substrate binding behavior and turnover rates of these grand fir GPP synthases (SEQ ID NOS:12, 16, and 20) to those of the Mentha synthase, kinetic constants were determined (Table 1).

[3] = [4-14C]IPP and DMAPP as co-substrates, MgCl2 as cofactor

Row | Molecule | product formed [1, 3] | KM(DMAPP) compared with the Mentha enzyme [2] | turnover rate compared with AgGPPS3 [2] | rate with GPP as allylic co-substrate in the production of FPP, relative to the rate with DMAPP [1] | turnover rate compared with the heterotetrameric Mentha GPP synthase [2] | allylic co-substrate utilised [1] | rate with FPP as allylic co-substrate in the formation of GGPP, relative to the rate with DMAPP [1] | farnesyl diphosphate produced [1, 3]
1 | B1 | predominately geranylgeranyl diphosphate as product with trace amounts of geranyl diphosphate | – | – | – | – | – | – | –
2 | B2 | geranyl diphosphate as the major product | two-fold higher | four fold higher | 110% | – | – | – | –
3 | B3 | geranyl diphosphate as the major product; also recorded: only GPP | – | four fold higher | – | three-fold lower | only DMAPP | – | –
4 | B4 | geranyl diphosphate as the major product | – | – | 110% | – | – | about 50% | about 30%

Reference: US7390643B2, “Geranyl diphosphate synthase molecules, and nucleic acid molecules encoding same” (Washington State University Research Foundation, priority 2002, dated 2008)
